Source: US20250340623A1 (AC IMMUNE, published 2025)
Residue numbers refer to the chain shown, from its start. Where no end group is shown, it is not given here. The star is where a group is joined. Biotin = O=C1N[C@H]2[C@H](CS[C@H]2CCCCC(=O)*)N1; Ahx = NCCCCCC(=O)O

T1: 1-15aa
T1 construct: also called alpha-synuclein peptide 1-15
T1 peptide: {Biotin-Ahx}-MDVFMKGLSKAKEGV

T2: 1-14aa
T2 construct: also called alpha-synuclein peptide 1-14
T2 peptide: MDVFMKGLSKAKEG-biotin

T3: 118-132aa
T3 peptide: {Biotin-Ahx}-VDPDNEAYEMPSEEG

T4: 82-96aa
T4 construct: also called alpha-synuclein peptide 82-96
T4 peptide: {Biotin-Ahx}-VEGAGSIAAATGFVK

T5: 46-60aa
T5 construct: also called alpha-synuclein peptide 46-60
T5 peptide: {Biotin-Ahx}-EGVVHGVATVAEKTK

T6: 91-105aa
T6 peptide: {Biotin-Ahx}-ATGFVKKDQLGKNEE

T7: 64-78aa
T7 construct: also called alpha-synuclein peptide 64-78
T7 peptide: {Biotin-Ahx}-TNVGGAVVTGVTAVA

T8: 10-24aa
T8 construct: also called alpha-synuclein peptide 10-24
T8 peptide: {Biotin-Ahx}-KAKEGVVAAAEKTKQ

T9: 127-140aa
T9 peptide: {Biotin-Ahx}-MPSEEGYQDYEPEA

B1: ACI-7067-1113D10-Ab1 (antibody, V domains shown)
VH: EVQLVESGGGLVQPKGSLKLSCAASGFTFNTYALHWVRQAPGKGLEWVARIRSKSSNYATYYADSVKDRFTISRDDSQSMLYLQMNNLKTEDTGMYYCVRGGVSPFDYWGQGTTLTVSS
VL: QIVLTQSPAIMSASPGEKVTMTCSASSSVSYMHWYQQKSGTSPKRWIYDTSKLASGVPARFSGSGSGTSYSLTISSMEAEDSATYYCQQWSNNPPTFGGGTKLEIK
notes: mouse hybridoma mAb; VH/VL only; also called 1113D10E3D5
B2: ACI-7067-1108B11-Ab2 (antibody, V domains shown)
VH: EVQLVESGGGLVQPKGSLKLSCAASGFTFNTYAMHWVRQAPGKGLEWVARIRSKGSNYATNYADSVKDRFTISRDDSQSMLYLQMNNLKTEDTAMYYCVRGHGSSYFSYWGQGTLVTVSA
VL: QIVLTQSPAIMSASPGERITMTCSANSSVTYMHWYQQKSGTSPKRWIYDTSNLASGVPARFSGSGSGTSYSLTISSMEAEDAATYYCQQWKSHPPTFGAGTKLELK
notes: mouse hybridoma mAb; VH/VL only; also called 1108B11D3
B3: ACI-7079-2605B3-Ab2 (antibody, V domains shown)
VH: EVQLVESGGGLVQPKGSLKLSCAASGFIFKTYAMHWVRQAPGKGLEWVARIRSKGGNYATYFADSVKDRFTISRDDSQNMLYLQVNNLKIEDTAMYFCVRGGNYSWFAYWGQGTLVTVSA
VL: B1 VL with S30T, K52Q, Y70H, A79T, S82A, S91T, N92R, E104A
notes: mouse hybridoma mAb; VH/VL only; also called 2605B3D1
B4: ACI-7079-2507B3-Ab1 (antibody, V domains shown)
VH: EVQLVESGGGLVQPKGSLKVSCAASGFTFKTYAMHWVRQAPGKGLEWVARIRSENSNFAKYYADSVKDRFTISRDDSQSMLYLQMHTLKTEDTAIYYCVRGYNGSSLDYWGQGTTLTVSS
VL: B1 VL with S14F, K18R, S30N, S64G, S76N, S82A, S91R, N92S
notes: mouse hybridoma mAb; VH/VL only; also called 2507B3G8
B5: ACI-7079-2602G4-Ab4 (antibody, V domains shown)
VH: B3 VH with I28T, G56S, N57D, F62Y, N79S, V85M, I90T, N103A, Y104D, A120T
VL: B1 VL with K18R, V19I, S24T, T68A, S71T, S82A, S91N, N92R, K102Q, E104A
notes: mouse hybridoma mAb; VH/VL only; also called 2602G4H1
B6: ACI-7079-2603F3-Ab1 (antibody, V domains shown)
VH: B2 VH with N61Y, H102G, S104D, Y106W, S108A
VL: B1 VL with K18R, S24T, T68A, S71T, S82A, S91N, N92S, K102Q, E104A
notes: mouse hybridoma mAb; VH/VL only; also called 2603F3H3
B7: ACI-7067-1106A8-Ab2 (antibody, V domains shown)
VH: B2 VH
VL: B2 VL with R18K, I19V, N26S, T30S, K91N
notes: mouse hybridoma mAb; VH/VL only; also called 1106A8H3
B8: ACI-3112H1_1101C8 (bispecific antibody, V domains shown)
VH 1: EVQLQQSGPELVKPGASVKISCKASGYTFSDYFMNWVKQSHGKSLEWIGDINPNNGGSSYIQKFKGKATLTVDKSSTTAYMELRSLTSEDSAVYYCARGSNYAMDSWGQGTSVTVSS
VL 1: DIVMSQSPSSLAVSAGEKVTMSCKSSQSLLNSRTRKNYLAWYQQKPGQSPKLLIYWASTRESGVPDRFTGSGSGTDFTLTISSVQAEDLAVYYCKQSYDLWTFGGGTKLEIK
VH 2: EVQLVESGGGLVQPKGSLKLSCAASGFSFNIYAMNWVRQAPGKGLEWVARIRSKSNNYATYYADSVKDRFTISRADSESMLYLQMNNLKTEDTAMYYCVRVGLRFYAMDYWGQGTSVTVSS
VL 2: DVLMTQTPLSLPVSLGDQASISCRSSQSIVHSNGNTYLEWYLQKPGQSPKLLIYKVSNRFSGVPDRFSGSGSGTDFTLKISRVEAEDLGVYYCFQGSQGPLTFGAGTKLELK
B9: ACI-4301D5_3108C10 (bispecific antibody, V domains shown)
VH 1: QVQLQQSGPELVRPGASVKISCKASGYRFTSYYIHWVKQRPGQGLEWIGWIYPGSDNTKHNDKFKGKATLTADTSSSTAYMQLSSLTSEDSAVYFCARDYDVGFGYWGQGTLVTVSS
VL 1: not shown
VH 2: ELQLVESGGGLVRPGGSLKLSCATSGFTFRNYAMSWVRQTPAKRLEWVATISDGGTYTFYSDNVKGRFTISRDNVKNTLYLQMSHLKSEDTAMYYCSRAGSGHWGQGTTLTVSS
VL 2: not shown
B10: ACI-1108B11_27D8 (bispecific antibody, V domains shown)
VH 1: B2 VH
VL 1: B2 VL
VH 2: EVQLVESGGGLVQPKGSLKLSCAASGFTFNTYAMNWVRQAPGKGLEWVARIRSKSNNFATYYADSVKDRFTISRDESESMLYLQMNNLKAEDTAMYYCVRSFDYWGQGTTLTVSS
VL 2: DIKMTQSPSSMYASLGERVTITCKASQDINSYLSWFQQKPGKSPKTLIYRAKRLVDGVPSRFSGSGSGQDYSLTISSLEYEDMGIYYCLQYDEFPFTFGSGTKLEIK

Molecular target: T10, alpha-synuclein seeds (UniProt P37840 1-140)
Experiment: cell-based or functional assay

aggregation half-time (τ1/2) of seeded alpha-synuclein aggregation, ThT; no antibody 26.9 hours | Binder
30.1 h | B1
33.3 h | B2

Molecular target: T1, 1-15aa
Experiment: indirect ELISA on biotinylated 15-mer peptide
Procedure: (§1) Serum-free supernatants were harvested from stable hybridomas. The supernatants containing antibodies of interest were then screened by an indirect ELISA assay to determine epitopes. Epitopes were first determined using a library of 15-mer peptides covering the entire sequence of human alpha-synuclein protein, spanning amino acids (aa) 1-140 with 9aa offset and […] overlap. […] Briefly, streptavidin-coated ELISA plates were blocked overnight at 4° C. […] Plates were washed with PBS/0.05% Tween®20 and then incubated with the hybridoma supernatants at 1/100 dilution for 1 hour at 25° C.

binding result | Binder
no binding (tested: supernatant 1/100) | B3
no binding (tested: supernatant 1/100) | B4
no binding (tested: supernatant 1/100) | B5
no binding (tested: supernatant 1/100) | B6

Molecular target: T2, 1-14aa
Experiment: indirect ELISA on biotinylated 15-mer peptide
Procedure: as §1

binding result | Binder
no binding (tested: supernatant 1/100) | B3
no binding (tested: supernatant 1/100) | B4
no binding (tested: supernatant 1/100) | B5
no binding (tested: supernatant 1/100) | B6

Molecular target: T3, 118-132aa
Experiment: indirect ELISA on biotinylated 15-mer peptide
Procedure: as §1

binding result | Binder
no binding (tested: supernatant 1/100) | B1
no binding (tested: supernatant 1/100) | B3
no binding (tested: supernatant 1/100) | B4
no binding (tested: supernatant 1/100) | B5
no binding (tested: supernatant 1/100) | B7
no binding (tested: supernatant 1/100) | B2
no binding (tested: supernatant 1/100) | B6

Molecular target: T4, 82-96aa
Experiment: indirect ELISA on biotinylated 15-mer peptide
Procedure: as §1

binding result | Binder
no binding (tested: supernatant 1/100) | B1
no binding (tested: supernatant 1/100) | B3
no binding (tested: supernatant 1/100) | B4
no binding (tested: supernatant 1/100) | B5
no binding (tested: supernatant 1/100) | B7
no binding (tested: supernatant 1/100) | B2
no binding (tested: supernatant 1/100) | B6

Molecular target: T5, 46-60aa
Experiment: indirect ELISA on biotinylated 15-mer peptide
Procedure: as §1

binding result | Binder
no binding (tested: supernatant 1/100) | B1
no binding (tested: supernatant 1/100) | B3
no binding (tested: supernatant 1/100) | B4
no binding (tested: supernatant 1/100) | B5
no binding (tested: supernatant 1/100) | B7
no binding (tested: supernatant 1/100) | B2
no binding (tested: supernatant 1/100) | B6

Molecular target: T6, 91-105aa
Experiment: indirect ELISA on biotinylated 15-mer peptide
Procedure: as §1

binding result | Binder
no binding (tested: supernatant 1/100) | B3
no binding (tested: supernatant 1/100) | B4
no binding (tested: supernatant 1/100) | B5
no binding (tested: supernatant 1/100) | B6

Molecular target: T7, 64-78aa
Experiment: indirect ELISA on biotinylated 15-mer peptide
Procedure: as §1

binding result | Binder
no binding (tested: supernatant 1/100) | B1
no binding (tested: supernatant 1/100) | B7
no binding (tested: supernatant 1/100) | B2

Molecular target: T8, 10-24aa
Experiment: indirect ELISA on biotinylated 15-mer peptide
Procedure: as §1

binding result | Binder
no binding (tested: supernatant 1/100) | B3
no binding (tested: supernatant 1/100) | B4
no binding (tested: supernatant 1/100) | B5
no binding (tested: supernatant 1/100) | B6

Molecular target: T9, 127-140aa
Experiment: indirect ELISA on biotinylated 15-mer peptide, supernatant 1/100
Procedure: as §1

binding result | Binder
binds | B1
binds | B3
binds | B4
binds | B5
binds | B7
binds | B2
binds | B6

Molecular target: T10, alpha-synuclein seeds
Experiment: cell-based or functional assay
Remark: another data set of the same source

IC50, percentage of de novo alpha-synuclein aggregates formed in cells after immunodepletion of seeds | Binder
18 nM | B8
21.6 nM | B9
8.6 nM | B10
